Measurements from paper doi:10.1101/2022.10.09.511488 (bioRxiv, 2022).

B1: HucM (MSMEG_2261) (natural protein)
chain: MASNGHSAGQNAIDELPDISPVDGIRRRLDDPQVAEALNSLLDHADLLAVLVKGLDGFVRRGDDIANNLTSAIGELKALNAADTPIPALAALKDVDLAGLANSLATLSGGLVKATPALNAVLDSLTDQRGAEVLSALGDALVAARTSAPPAPRGVRGMWKTLRAAAKDPDVGRGVSYLIEVARVFGSKV

Legend:
[1] = biological target: Huc protomer (HucSL heterodimer) (Mycobacterium smegmatis mc2155); experiment: cryo-EM structure
cryo-EM structure = biological target: the molecule itself; experiment: cryo-EM structure

Row | Molecule | stoichiometry N [1] | stoichiometry N (cryo-EM structure)
1 | Huc protomer (HucSL heterodimer) (complex) | 2 | 
2 | B1 |  | 4
